The results in this text go back to patent publication US20250197505A1 (DREN BIO, published 2025).

The target in assay [1] is T1, human CD94 expressed on cells (human primary NK cells in PBMCs; HEK cells expressing human CD94) (human, UniProt Q13241 1-179).
T1 sequence (looked up): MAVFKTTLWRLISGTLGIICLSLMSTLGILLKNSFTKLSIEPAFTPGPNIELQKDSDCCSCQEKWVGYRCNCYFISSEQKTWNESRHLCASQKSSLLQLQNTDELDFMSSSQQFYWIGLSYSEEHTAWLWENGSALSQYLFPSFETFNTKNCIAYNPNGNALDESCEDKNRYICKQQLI
The assay can be described thus: cell-based or functional assay.

The target in assay [2] is T2, cynomolgus CD94 expressed on HEK293 cells (cynomolgus monkey, UniProt Q68VD4 1-179).
T2 construct: also called cyno-CD94; cynomolgus monkey CD94
T2 sequence: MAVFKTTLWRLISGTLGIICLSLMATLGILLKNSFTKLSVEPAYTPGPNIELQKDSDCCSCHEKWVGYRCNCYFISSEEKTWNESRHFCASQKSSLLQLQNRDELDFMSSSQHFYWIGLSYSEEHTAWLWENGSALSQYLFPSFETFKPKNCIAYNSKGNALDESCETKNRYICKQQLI
In words: flow cytometry, hybridoma supernatant on cynomolgus CD94-expressing HEK293 cells. From the text:
(§1) Anti-CD94 hybridoma supernatants were screened on cynomolgus CD94-expressing HEK293 cells by flow cytometry for cross-reactivity to cynomolgus CD94. HP-3D9 is a commercial anti-CD94 antibody that was used as a negative control. Mouse IgG1, IgG2a, IgG2b and IgG3 were used as negative controls. […] Commercially available anti-CD94 antibodies were used to test cynomolgus cross-reactivity. 18H3 was used as a positive control. The MFI of each antibody was normalized to the MFI of its respective isotype.
(§2) Cynomolgus CD94-expressing HEK293 cells were seeded in 96-well plates at a density of 100,000 cells per well, incubated with cell viability dye (Thermo Fisher) for 30 minutes on ice and protected from light. The cells were washed once with FACS buffer (PBS with 2% IgG low FBS). Hybridoma supernatants, anti-CD94 antibodies and isotype controls were incubated with cells for 30 minutes on ice and protected from light. […] After incubation, the cells received a final wash in FACS buffer before quantification on the Cytoflex (Beckman Coulter). All data acquisition and fluorescence compensation were performed using CytoFlex (Beckman Coulter, Atlanta, GA). […] CD94 expression was then quantified on this population. […]
In general terms: In flow cytometry, cells or beads pass a laser one at a time.

Assay [3] has as its target T1, human CD94 expressed on cells (human …). The assay can be described thus: flow cytometry titration on CD3-CD56+ NK cells in healthy donor PBMCs; 'Affinity on Human NK Cells'; the filing derives these affinities as EC50 of titration curves (the 2.6nM of 18H3 is labelled EC50 in FIG. 1). The method, then: Healthy donor PBMCs were seeded in 96 well plates at a density of 100,000 cells per well, incubated with human Fc block (Biolegend) and cell viability dye (Thermo Fisher) for 30 minutes on ice and protected from light. The cells were washed once with FACS buffer (PBS with 2% IgG low FBS). anti-CD94 antibodies at concentrations of 100 nM to 0.046 nM, 1:3-fold dilutions, were incubated with cells for 30 minutes on ice and protected from light. The cells were then washed and incubated with goat IgG anti-mouse Fey specific AF647 secondary antibody or goat (Fab)2 fragment anti-human Fey specific AF647 secondary antibody (Jackson immuno research), anti-CD3 pacific blue-labelled and anti-CD56 FITC-labelled antibodies (Biolegend) for 30 minutes on ice and protected from light. After incubation, the cells received a final wash in FACS buffer before quantification on the Cytoflex (Beckman Coulter). All data acquisition and fluorescence compensation were performed using CytoFlex (Beckman Coulter, Atlanta, GA). Data analysis was performed using FlowJo software. NK cells were identified through gating on lymphocytes on the forward and side scatter, followed by doublet and dead cell exclusion, and gated on the CD3−CD56+ population. CD94 expression was then quantified on the CD3−CD56+NK cell population. […]
The affinity of the antibody clones was also assessed by flow cytometry analysis.

Assay [4] has the same target. The assay can be described thus: HLA-E tetramer blocking assay, flow cytometry on CD3-CD56+ NK cells in healthy donor PBMCs; antibody at one saturating concentration, blocked ligand PE-labelled HLA-E tetramer; percent blocking = 100-((percent HLA-E positive with antibody)/(percent HLA-E positive with isotype)*100). The method, then:
Healthy donor PBMCs were incubated with anti-CD94 antibodies. PE labeled HLA-E tetramer was then incubated with the cell and antibody mixture, and detected using flow cytometry. For HP-3B1, 131412, 12K45, DX22, 1M4 and 1E4, 2.5 μl of HLA-E tetramer reagent was used, while 5 μl was used for 18H3 and HP-3D9. Saturating concentrations of each antibody was used in this assay. The percent blocking was calculated as 100−((percent HLA-E positive for anti-CD94 antibody)/(percent HLA-E positive for isotype)*100).
Healthy donor PBMCs were seeded in 96-well plates at a density of 100,000 cells per well, incubated with human Fc block (Biolegend) and cell viability dye (Thermo Fisher) for 30 minutes on ice and protected from light. The cells were washed once with FACS buffer (PBS with 2% IgG low FBS). anti-CD94 antibodies at EC80 concentrations were incubated with cells for 30 minutes on ice and protected from light. After incubation with the anti-CD94 antibodies, the cells were washed and incubated with HLA-E tetramer PE (Creative Biolabs), anti-CD3 pacific blue-labelled, and anti-CD56 FITC-labelled antibodies (Biolegend) for 30 minutes on ice and protected from light. The cells then received a final wash in FACS buffer before quantification on the Cytoflex (Beckman Coulter). All data acquisition and fluorescence compensation were performed using CytoFlex (Beckman Coulter, Atlanta, GA). Data analysis was performed using FlowJo software. NK cells were identified through gating on lymphocytes on the forward and side scatter, followed by doublet and dead cell exclusion, and gated on the CD3−CD56+ population. HLA-E expression was then quantified on the CD3−CD56+NK cell population. Percent blocking was calculated as 100−((percent HLA-E positive for anti-CD94 antibody)/(percent HLA-E positive for isotype)*100).

Assay [5] deals with T2, cynomolgus CD94 expressed on HEK293 …. In words: flow cytometry, cynomolgus CD94-expressing HEK293 cells.
Excerpt: as §1, §2

B1: anti-CD94 antibody clone 1E4 (antibody, V domains shown)
VH: QVTLRESGPALVKPTQTLTLTCTFSGFSLSTSDLCVSWIRQPPGKALEWLALIDWNDDKYYSTSLQTRLTISKDTSKNQVVLTMTNMDPVDTATYYCARTIAAAGPYDAFDIWGQGTMVTVSS
VL: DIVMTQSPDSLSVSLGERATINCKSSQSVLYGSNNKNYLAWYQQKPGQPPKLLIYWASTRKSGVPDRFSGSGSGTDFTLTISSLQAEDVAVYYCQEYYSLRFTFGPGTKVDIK
notes: also called fucosylated 1E4
With B1, the “percent decrease in MFI (antibody internalization assay), comparing 0.5 hours to 24 hours at 37° C.” value in assay [1] came to 18%. Further, the binding result in assay [2] is recorded as “binds”. The response in assay [3] was half-maximal at 75 nM (EC50). Moreover, the “HLA-E Blocking” value in assay [4] amounted to 0%.

B2: anti-CD94 antibody clone 1M4 (antibody, V domains shown)
VH: QLVESGGGLVQPGGSLRLACAASGFTFSNYAMNWVRQAPGKGLEWVSVISGSGDTTYCADSVKGRFTISRDNSKNTLHLQLNSLRAEDTAVYYCAKNCYGSGSYYNHFDYWGQGTLVTVSS
VL: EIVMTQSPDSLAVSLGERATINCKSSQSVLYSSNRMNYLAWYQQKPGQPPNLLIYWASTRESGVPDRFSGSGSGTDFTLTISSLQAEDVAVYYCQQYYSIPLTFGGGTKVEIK
As for B2, the “percent decrease in MFI (antibody internalization assay), comparing 0.5 hours to 24 hours at 37° C.” value in assay [1] was found to be 32%. Further, the binding result in assay [5] was “binds”. The same molecule registered an EC50 in assay [3] of 7 nM. Moreover, in assay [4], the “HLA-E Blocking” value stood at 0%.

In general, EC50 refers to the concentration needed to bring the measured effect to its halfway point.
